Experimental findings from PMC12789631 are described below.

The test system of this data set is CCCCC[C@H](O)/C=C/[C@H]1[C@H](O)CC(=O)[C@@H]1C/C=C\CCCC(=O)O. The experiment in a line: cells, lysate or membranes.

Turning to “prostaglandin transporter PGT (OATP2A1) (Homo sapiens; S346A)”, the Km was 1.14 µM.
